Tests used:
JIL-1 = target: T1, JIL-1 (Drosophila melanogaster, UniProt Q9V3I5 1-1207); assay: EMSA; 70 nM DNA; DNA EMSA: 50 mM HEPES pH 7.6, 50 mM NaCl, 10% glycerol, 2 mM MgCl2, 10% BSA, RT 10 min; RNA EMSA: 25 mM HEPES pH 7.6, 100 mM KCl, 3 mM MgCl2, 1 mM DTT, 5% glycerol, 100 ug/mL yeast tRNA, 20 C 15 min; nucleosome pull-down: 20 mM Tris/Cl pH 7.5, 50 mM NaCl, 5 mM EDTA, 0.1% Tween 20, 4 C 4 h; settings: protein: recombinant; tags: N-terminal FLAG; label: Cy5; blunt
T1 sequence: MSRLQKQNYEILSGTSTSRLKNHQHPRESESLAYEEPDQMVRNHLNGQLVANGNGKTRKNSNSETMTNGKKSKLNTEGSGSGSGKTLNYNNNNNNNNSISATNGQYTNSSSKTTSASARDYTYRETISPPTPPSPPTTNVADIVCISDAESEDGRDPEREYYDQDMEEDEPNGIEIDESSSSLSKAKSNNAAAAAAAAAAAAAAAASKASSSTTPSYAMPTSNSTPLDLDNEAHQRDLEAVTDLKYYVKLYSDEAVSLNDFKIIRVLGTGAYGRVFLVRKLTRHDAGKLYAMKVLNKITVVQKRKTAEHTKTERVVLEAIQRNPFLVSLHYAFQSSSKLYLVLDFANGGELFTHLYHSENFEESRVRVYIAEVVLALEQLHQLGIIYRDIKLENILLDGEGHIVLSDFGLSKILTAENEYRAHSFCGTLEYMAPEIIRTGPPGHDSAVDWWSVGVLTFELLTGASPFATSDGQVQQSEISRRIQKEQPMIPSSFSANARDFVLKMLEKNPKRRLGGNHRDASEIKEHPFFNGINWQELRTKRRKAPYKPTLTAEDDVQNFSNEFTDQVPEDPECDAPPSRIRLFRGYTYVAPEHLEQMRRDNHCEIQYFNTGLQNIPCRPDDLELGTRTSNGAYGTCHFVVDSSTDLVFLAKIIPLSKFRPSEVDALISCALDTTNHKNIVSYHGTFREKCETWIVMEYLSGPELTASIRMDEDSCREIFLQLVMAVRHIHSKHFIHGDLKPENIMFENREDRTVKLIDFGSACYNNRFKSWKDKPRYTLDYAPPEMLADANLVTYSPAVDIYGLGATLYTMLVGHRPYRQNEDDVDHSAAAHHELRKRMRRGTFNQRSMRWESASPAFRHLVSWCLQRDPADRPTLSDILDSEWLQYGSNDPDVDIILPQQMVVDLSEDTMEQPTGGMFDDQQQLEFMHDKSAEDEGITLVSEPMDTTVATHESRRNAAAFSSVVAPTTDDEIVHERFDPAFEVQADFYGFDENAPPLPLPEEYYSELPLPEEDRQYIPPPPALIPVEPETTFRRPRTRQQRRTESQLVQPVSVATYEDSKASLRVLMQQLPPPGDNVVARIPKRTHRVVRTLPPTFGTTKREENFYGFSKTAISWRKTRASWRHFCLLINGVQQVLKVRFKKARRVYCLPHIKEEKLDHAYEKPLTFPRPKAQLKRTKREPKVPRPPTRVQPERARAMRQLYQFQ

JASPer = target: T2, JASPer (Drosophila melanogaster, UniProt Q9VAA9 1-475); assay: EMSA; 70 nM DNA; 9-fold molar excess of JASPer shifts all DNA; at least three retarded bands; DNA EMSA: 50 mM HEPES pH 7.6, 50 mM NaCl, 10% glycerol, 2 mM MgCl2, 10% BSA, RT 10 min; RNA EMSA: 25 mM HEPES pH 7.6, 100 mM KCl, 3 mM MgCl2, 1 mM DTT, 5% glycerol, 100 ug/mL yeast tRNA, 20 C 15 min; nucleosome pull-down: 20 mM Tris/Cl pH 7.5, 50 mM NaCl, 5 mM EDTA, 0.1% Tween 20, 4 C 4 h; settings: protein: recombinant; tags: C-terminal FLAG; label: Cy5; blunt
T2 sequence: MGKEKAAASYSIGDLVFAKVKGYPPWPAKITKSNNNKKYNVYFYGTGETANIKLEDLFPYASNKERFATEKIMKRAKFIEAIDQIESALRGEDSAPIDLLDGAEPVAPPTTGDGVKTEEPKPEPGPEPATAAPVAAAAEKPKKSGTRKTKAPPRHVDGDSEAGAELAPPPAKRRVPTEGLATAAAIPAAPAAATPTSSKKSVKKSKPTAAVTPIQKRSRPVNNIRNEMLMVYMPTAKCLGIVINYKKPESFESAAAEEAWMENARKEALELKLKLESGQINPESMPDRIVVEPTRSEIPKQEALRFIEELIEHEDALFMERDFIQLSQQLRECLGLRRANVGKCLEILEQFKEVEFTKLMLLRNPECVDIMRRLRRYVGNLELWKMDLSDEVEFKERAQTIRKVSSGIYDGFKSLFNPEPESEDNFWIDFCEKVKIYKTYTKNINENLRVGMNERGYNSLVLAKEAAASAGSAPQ

B1: 40 bp dsDNA (end of 601 positioning sequence) (dsDNA)
DNA 1: CCTGGAGAATCCCGGTGCCGAGGCCGCTCAATTGGTCGTA
DNA 2: TACGACCAATTGAGCGGCCTCGGCACCGGGATTCTCCAGG
JIL-1
  binding result: no binding
JASPer
  binding result: binds

— publication PMC6877644, “JASPer controls interphase histone H3S10 phosphorylation by chromosomal kinase JIL-1 in Drosophila”
